# Earlier results, collected in PMC5668312.
# Tests used:
# CHMP1B (Homo sapiens) = CHMP1B (Homo sapiens) (UniProt Q7LBR1)
# [1] = molecular target: Vps2 (Saccharomyces cerevisiae) (UniProt P36108)
# Chain of Vps2 (Saccharomyces cerevisiae) (P36108 whole entry): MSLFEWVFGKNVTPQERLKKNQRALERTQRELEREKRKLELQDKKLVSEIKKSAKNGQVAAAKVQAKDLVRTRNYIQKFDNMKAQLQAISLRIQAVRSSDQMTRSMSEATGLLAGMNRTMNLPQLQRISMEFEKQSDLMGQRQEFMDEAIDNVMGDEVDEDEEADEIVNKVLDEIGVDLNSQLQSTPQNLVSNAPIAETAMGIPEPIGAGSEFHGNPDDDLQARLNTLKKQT
# Chain of CHMP1B (Homo sapiens) (Q7LBR1 whole entry): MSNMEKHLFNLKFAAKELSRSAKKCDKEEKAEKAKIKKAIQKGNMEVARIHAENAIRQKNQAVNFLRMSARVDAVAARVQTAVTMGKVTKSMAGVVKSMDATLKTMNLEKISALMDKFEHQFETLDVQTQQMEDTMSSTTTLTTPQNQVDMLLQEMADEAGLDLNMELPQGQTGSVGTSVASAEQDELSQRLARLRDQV
# Chain of Vps4 MIT (P52917 1-83): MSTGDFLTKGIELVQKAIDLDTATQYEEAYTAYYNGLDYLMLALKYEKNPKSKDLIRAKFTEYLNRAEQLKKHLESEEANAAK
# Chain of spastin MIT (Q9UBP0 117-198): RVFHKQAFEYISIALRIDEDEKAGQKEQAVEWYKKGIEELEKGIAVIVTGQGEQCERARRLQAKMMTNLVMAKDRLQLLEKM
Substance,Kd (CHMP1B (Homo sapiens)),Kd [1]
spastin MIT (from UniProt Q9UBP0),12 µM,–
Vps4 MIT (from UniProt P52917),–,30 µM
